The target in one assay is T1, IL-1β pro (Homo sapiens, UniProt P29466).
T1 construct: beginning with amino acid 120; Based upon a molecular weight analysis, the approximate C-terminus of mature IL-1β pro is about amino acid 297
T1 sequence (P29466 120-297): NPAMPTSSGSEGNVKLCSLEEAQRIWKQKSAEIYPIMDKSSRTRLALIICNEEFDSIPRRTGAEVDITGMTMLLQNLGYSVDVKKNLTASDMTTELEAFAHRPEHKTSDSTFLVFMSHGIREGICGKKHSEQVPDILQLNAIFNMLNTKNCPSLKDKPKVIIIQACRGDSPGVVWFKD
T1 sequence (P29466 317-404): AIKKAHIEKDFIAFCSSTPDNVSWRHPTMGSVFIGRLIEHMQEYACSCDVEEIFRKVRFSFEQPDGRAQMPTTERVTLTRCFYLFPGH
Put plainly: Inhibition of IL-1β pro catalyzed degradation of preIL-1β, in vitro assay with Western blot. The assay is classed as biochemical. On the procedure:
Products were subjected to SDS-PAGE, transferred to nitrocellulose, and probed with an antibody raised against the COOH terminus of mature IL-1β. Lane 3, preIL-1β incubated with 25 μM of inhibitor; lane 4, preIL-1β incubated with 10 μM of inhibitor; lane 5, preIL-1β incubated with 5 μM inhibitor, lane 6, preIL-1β incubated with 1 μM inhibitor.
Boc-Asp-CH2F was tested for its ability to inhibit IL-1β pro catalyzed degradation of preIL-1β using an in vitro assay method. Black, et al., J. Biol. Chem., 263(19): 9437 (1988). Boc-Asp-CH2F was prepared in accordance with the method of example of 1A.
5 μl of preIL-1β (about 50 μg/ml in PBS) was mixed with 10 μl of purified IL-1β pro (15–75 μg/ml in PBS) and incubated at 37° C. for 30 minutes. The incubation was terminated by placing the samples on Dry Ice or by the addition of SDS sample buffer. PMSF was then added to a concentration of 1 mM, and the samples were dialyzed against water. After dialysis, the samples were concentrated to dryness in a Speed-Vac concentrator and dissolved in SDS sample buffer.
SDS-PAGE was carried out with 12% polyacrylamide gels. The gels were placed in transfer buffer (0.192 M glycine. 0.025 M Tris-HCl (pH 8.3), 20% v/v methanol), and protein was then electrophoresed onto nitrocellulos (Sartorius) in a Hoeffer transfer apparatus (1 h at maximum voltage). […]

For assay [1], the target named is T2, protease that generates mature IL-1β from the precursor polypeptide (Homo sapiens, UniProt P29466).
T2 construct: host or cells: partially purified (about 500-fold) from THP-1 cell lysates, per Black et al., FEBS Lett. 247:386-90 (1989)
T2 sequence (P29466 120-297 limits assumed): T1 sequence (P29466 120-297)
T2 sequence (P29466 317-404 limits assumed): T1 sequence (P29466 317-404)
Particulars: Black et al., FEBS Lett., 247:386–90 (1989); cited from earlier work.

For assay [2], the target named is T3, purified human IL-1β pro enzyme (Homo sapiens, UniProt P29466).
T3 construct: beginning with amino acid 120; Based upon a molecular weight analysis, the approximate C-terminus of mature IL-1β pro is about amino acid 297; endogenous in cells; host or cells: THP-1 cells (ATCC), stimulated, lysed, six-step chromatography
T3 sequence (P29466 120-297): T1 sequence (P29466 120-297)
T3 sequence (P29466 317-404): T1 sequence (P29466 317-404)
Put plainly: Cleavage of synthetic peptide substrates by purified human IL-1β pro enzyme (RP-HPLC). The assay is classed as biochemical. On the set-up: key to Reactivity Relative To Peptide 1: reactivity relative to peptide Ala112–Ser121 of precursor IL-1β. Particulars: for ability of IL-1β pro to cleave the substrate peptide (in words): Tables 1 and 2. As to the method: This example illustrates the range of substrate specificity of purified human IL-1β pro enzyme to cleave a group of amino acid sequences. A variety of peptide substrates were prepared featuring changes in individual amino acids in the region corresponding to the cleavage site in human precursor IL-1β (His 115 to Pro 118). The reactivity of the peptide substrates was expressed relative to the peptide corresponding to Ala 112 to Ser 121 of the precursor IL-1β sequence.
Peptide solutions of standard concentration were prepared by dissolving about 2–3 mg of peptide substrate in water, loading the solution onto a Waters Sep-Pak C18 cartridge and washing three times with 5 ml of water. The peptide substrates were eluted with acetonitrile and then evaporated to dryness. Each substrate was standardized to 1 mM by amino acid analysis prior to use.
Purified human IL-1β pro enzyme (10 μl), peptide substrate in water (10 μl), and 10 mM Tris buffer, pH 8.0 containing 25% v/v glycerol (10 μl) were mixed and the mixtures were incubated at 37° C. for four hours. The reaction was quenched with by adding 1 M glycine/HCl buffer pH 2.0 (10 μl). The samples were then analyzed using RP-HPLC with a Vydac C18 column (0.46 cm×25 cm) and eluting with a linear gradient from 100% solvent A to 70% solvent A/30% solvent B over 30 minutes at a flow rate of 1 ml/min. The effluent was monitored at 280 nm absorbing product.
This example illustrates the effect of substrate peptide length on the ability of human IL-1β pro enzyme to cleave peptide substrates. […] Five substrate peptides were made that correspond to the amino acid sequence of the IL-1β pro cleavage site of human precursor IL-1.

Assay [3] has as its target Peptide 3, Ala-Tyr-Val-His-Glu-Ala-Pro-Val-Arg-Ser.
Assay [4] concerns the target Peptide 7, Ala-Tyr-Val-Phe-Asp-Ala-Pro-Val-Arg-Ser.
Assay [5] concerns the target Peptide 5, Ala-Tyr-Val-His-Asp-Gly-Pro-Val-Arg-Ser.
For assay [6], the target named is Peptide 8, Ala-Tyr-Val-His-Asp-Ala-Ala-Val-Arg-Ser.
For assay [7], the target named is Peptide 1, Ala-Tyr-Val-His-Asp-Ala-Pro-Val-Arg-Ser (human).
Assay [8] addresses Peptide 4, Ala-Tyr-Val-His-(D-Asp)-Ala-Pro-Val-Arg-Ser.
Assay [9] deals with Peptide 6, Ala-Tyr-Val-His-Asp-Val-Pro-Val-Arg-Ser.
Assay [10] addresses Peptide 2, Ala-Tyr-Val-His-Asn-Ala-Pro-Val-Arg-Ser.
The target in assay [11] is Peptide 9, Glu-Ala-Tyr-Val-His-Asp-Ala-Pro (human).
For assay [12], the target named is T4, Peptide 10, Ac-Tyr-Val-His-Asp-Ala-Pro-Val-Arg-NH2 (human).
T4 sequence (peptide, N-terminal acetyl (Ac-); C-terminal amide (-NH2)): YVHDAPVR

Setting [13] is: Table 1, changes at cleavage site, 37° C., four hours, extent of peptide cleavage by RP-HPLC peak area at 280 nm.
The mark [14] stands for this setting: Table 2, effect of substrate peptide length, conducted as in Example 1.

Non-standard residues stand in square brackets, D forms with d.

Turning to `CC(C)(C)OC(=O)N[C@@H](CC(=O)O)C(=O)CF` [Boc-Asp-CH2F], the “inhibition of generation of mature IL-1β from preIL-1β” value on IL-1β pro (inhibitor concentration 1 μM) is on record as “partially inhibits”; against IL-1β pro (inhibitor concentration 5 μM) it was “completely inhibits”.

`CCN1C(=O)C=CC1=O` [N-ethylmaleimide]: the “inhibition of the protease (in words)” value in [1] is listed as “inhibited”.

As to `O=C(O)CI` [iodoacetate], the “inhibition of the protease (in words)” value in [1] is “inhibited”.

Turning to “Ala-Tyr-Val-His-(D-Asp)-Ala-Pro-Val-Arg-Ser (Seq. I.D. No. 16) (Ac-AYVH[dD]APVRS-NH2) [Peptide 4, substrate peptide, Asp changed to D-aspartate]”, the “Reactivity Relative To Peptide 1” value in assay [2] (setting [13]) is recorded as <0.01. Moreover, the “ability of IL-1β pro to cleave the substrate peptide (in words)” value (“ability of IL-1β pro” below) in assay [2] is on record as “profound effect on the ability of IL-1β pro to cleave the substrate”.

Take “Ala-Tyr-Val-His-Asn-Ala-Pro-Val-Arg-Ser (Seq. I.D. No. 14) (AYVHNAPVRS) [Peptide 2, substrate peptide, Asp changed to asparagine]”: in assay [2] (setting [13]), the “Reactivity Relative To Peptide 1” value was <0.01. The “ability of IL-1β pro” value in assay [2] was “profound effect on the ability of IL-1β pro to cleave the substrate”.

Turning to “Ala-Tyr-Val-His-Asp-Ala-Ala-Val-Arg-Ser (Seq. I.D. No. 20) (AYVHDAAVRS) [Peptide 8, substrate peptide, P2′ proline changed to alanine]”, the “Reactivity Relative To Peptide 1” value in assay [2] (setting [13]) stood at 0.47. The “ability of IL-1β pro” value in assay [2] was “still cleaved by human IL-1β pro but only half as efficiently”.

On to “Ala-Tyr-Val-His-Asp-Gly-Pro-Val-Arg-Ser (Seq. I.D. No. 17) (AYVHDGPVRS) [Peptide 5, substrate peptide, P1′ alanine replaced with glycine]”, for which the “times more reactive than peptide 1” value in assay [2] was 3.4 times. Further, the “Reactivity Relative To Peptide 1” value in assay [2] (setting [13]) is recorded as 3.40.

With “Ala-Tyr-Val-His-Asp-Val-Pro-Val-Arg-Ser (Seq. I.D. No. 18) (AYVHDVPVRS) [Peptide 6, substrate peptide, P1′ alanine changed to valine]”, the “Reactivity Relative To Peptide 1” value in [2] (setting [13]) is on record as <0.05. Further, the “ability of IL-1β pro” value in assay [2] is reported as “effectively prevents proteolytic cleavage”.

In the case of “Ala-Tyr-Val-His-Glu-Ala-Pro-Val-Arg-Ser (Seq. I.D. No. 15) (AYVHEAPVRS) [Peptide 3, substrate peptide, Asp changed to glutamic acid]”, in [2] (setting [13]), the “Reactivity Relative To Peptide 1” value is <0.05. For the same molecule, the “ability of IL-1β pro” value in assay [2] is “profound effect on the ability of IL-1β pro to cleave the substrate”.

“Ala-Tyr-Val-Phe-Asp-Ala-Pro-Val-Arg-Ser (Seq. I.D. No. 19) (AYVFDAPVRS) [Peptide 7]”: the “Reactivity Relative To Peptide 1” value in [2] (setting [13]) was found to be 0.50. Also, in [2], the “ability of IL-1β pro” value is “A similar result was obtained”.

“Glu-Ala-Tyr-Val-His-Asp-Ala-Pro- (Seq. I.D. No. 21) (EAYVHDAPVRSL) [Peptide 9, substrate peptide of the precursor IL-1β cleavage site]”: the “Reactivity Relative To Peptide 1” value in assay [2] (setting [14]) was determined as 0.74.

Regarding “His-Asp-Ala-Pro- (Seq. I.D. No. 24) (HDAP) [Peptide 12, four amino acid substrate peptide]”, the “Reactivity Relative To Peptide 1” value in assay [2] (setting [14]) was “Not cleaved”.

For the molecule “Tyr-Val-His-Asp-Ala-Pro-Val-Arg- (Seq. I.D. No. 22) (Ac-YVHDAPVR-NH2) [Peptide 10, eight amino acid substrate peptide]”, in [2] (setting [14]), the “Reactivity Relative To Peptide 1” value turned out to be 2.40. Also, the “ability of IL-1β pro” value in assay [2] was “cleaved most efficiently”.

Regarding “Val-His-Asp-Ala-Pro-Val- (Seq. I.D. No. 23) (VHDAPV) [Peptide 11, six amino acid substrate peptide]”, the “Reactivity Relative To Peptide 1” value in [2] (setting [14]) is “Not cleaved”.

B1: purified human IL-1β pro enzyme (interleukin 1β protease), purified from THP-1 cells (enzyme)
chain: T1 sequence (P29466 120-297)
In the case of B1, the Reactivity Relative To Peptide 1 (peptide cleavage, RP-HPLC) (relative to Peptide 1) is < 0.05 in assay [3]; 0.5 in assay [4]; 3.4 in [5]; 0.47 in [6]; 1 in assay [7]; < 0.01 in assay [8]. Besides, the Reactivity Relative To Peptide 1 (peptide cleavage, RP-HPLC) (relative to Peptide 1) in assay [9] was < 0.05; in assay [10] it was < 0.01; in [11] it was 0.74; in assay [12], 2.4.
